Source: IntAct's records for PubMed 23856421

B1: Dolichol-phosphate mannosyltransferase subunit 1 (Homo sapiens), O60762 (parent)
chain: MASLEVSRSPRRSRRELEVRSPRQNKYSVLLPTYNERENLPLIVWLLVKSFSESGINYEIIIIDDGSPDGTRDVAEQLEKIYGSDRILLRPREKKLGLGTAYIHGMKHATGNYIIIMDADLSHHPKFIPEFIRKQKEGNFDIVSGTRYKGNGGVYGWDLKRKIISRGANFLTQILLRPGASDLTGSFRLYRKEVLEKLIEKCVSKGYVFQMEMIVRARQLNYTIGEVPISFVDRVYGESKLGGNEIVSFLKGLLTLFATT
partner: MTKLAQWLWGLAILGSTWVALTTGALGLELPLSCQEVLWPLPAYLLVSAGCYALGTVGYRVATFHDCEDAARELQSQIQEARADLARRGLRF

Variants of: B1
Conditions: with dpm3_human DPM3, Q9P2X0

| Variant | effect of a mutation on the interaction |
| --- | --- |
| G152V | disrupting interaction |
